The data set is described as follows: soluble on expression in E. coli; label from the status in PepcDB or PDB records.
In the case of “MVERKRWSEEFSEWFNEVIEEAGILDKRYPVKGMNVWLPYGLKIMRNIEKFIHEEMERTGHQEVLFPALIPETEFKKEAEHIAGFEGEVFWVTHAGHEPLDVRLVLRPTSETAMYSMFALWIRSHADLPFKVYQIVNVYRYETKHTRPLIRVREISRFFEAHTAHADFEDAERQIKEDLEIFDNLMRKLALAYIISKRPEWDKFPGAFYSLGAEVVMPDGRTLQIGTMHNYKQNFSKAYNILYEKEDGTHDYVHQTTFGMSERLLAAVIAIHGDDRGMVLPPTIAPIQVVIVPIPKKGSEEEVYSYAKGIEEELRDAGIRVYLDLRDKRPGWKFYDWELKGVPVRVEVGPIDVQNSTVVLARRDKLEKITVKREELVDKVRELFEDIMEFLYERANEWLESHIKRVDTLEEAKAVFEDRRGIVEIPWCGEESCGLKMEEELEAKMLGIPYPEEKAKAPEGSKCPVCGREAKFIARFARTY”, the “soluble on expression in E. coli” value is given as “soluble”.

As for “MVFCGDDVATGVRDAITYCYRCKGRKVTLSDHEADDDNKPIGDFDYDHEVVVFEIRSRAMEKLRKKRRTGMEGLTYKFVKEYDIENEFCSVRSSFSECCMSDISIEGYMTAKTEFSRSSSLKGLELENQWKMHYVNEIKKGSVIQEFCHCQGWPFGLGRKAALLPPLPKSPAESWSWRKPTRVTPVPFV”, the “soluble on expression in E. coli” value was “soluble”.

Consider “MVFRKSLLKLAVFALGACVAFSNANAAEGKLESIKSKGQLIVGVKNDVPHYALLDQATGEIKGFEVDVAKLLAKSILGDDKKIKLVAVNAKTRGPLLDNGSVDAVIATFTITPERKRIYNFSEPYYQDAIGLLVLKEKKYKSLADMKGANIGVAQAATTKKAIGEAAKKIGIDVKFSEFPDYPSIKAALDAKRVDAFSVDKSILLGYVDDKSEILPDSFEPQSYGIVTKKDDPAFAKYVDDFVKEHKNEIDALAKKWGL”, for which the “soluble on expression in E. coli” value was “soluble”.

Take MVHFIFIALRSMRFMRRLVRNLQYLLLPITSSLLFI: the “soluble on expression in E. coli” value is listed as “soluble”.

Consider “MVHKSVESPAFSASIEDYALIGDQQSAALVARDGSIDWLCLPRFDSPACFAALLGDEHNGKWRIAPKGAGPCTRRAYRTDSLVLDSEWDTPEGTLRVTDLMPQRDSAPDLVRIVEGLRGRVTVRSAIRLRFDYGLEHHHHHH”, for which the “soluble on expression in E. coli” value is recorded as “soluble”.

Turning to “MVHVSGTKVKVVKKKLTKFKRHESDRYRRVAPSWRKPKGIDNRVRRRFRGMRAMPTIGHGSDRRTRFVLPNGYKKVLVQNVKDLDMLLMQSYKYIGEIGHGVSAKSRKGIVERAAQLNIKLTNGNARLRTEESE”, the “soluble on expression in E. coli” value was “not soluble”.

“MVITLPKLKYALNALSPHISEETLNFHYNKHHAGYVNKLNTLIKDTPFAEKSLLDIVKESSGAIFNNAAQIWNHTFYWDSMGPDCGGEPHGEIKEKIQEDFGSFNNFKEQFSNILCGHFGSGWGWLALNNNNKLVILQTHDAGNPIKDNTGIPILTCDIWEHAYYIDYRNDRASYVKAWWNLVNWNFANENLKKAMQKLEHHHHHH”: the “soluble on expression in E. coli” value was “soluble”.

Consider “MVKESGMASLLLENPYYGYRKPKDQLRSSLKNVSDLFVMGGALILESAALLHWLERDGFWPLGMTGISMGGHMASLAVTNWPKPIPLIPCLSWTTASSVFTTGVLSRAVNWRELEKQYATHTVYEEEIISMLEYCGTDSFRMGQEFVKNAPGSFDGLDLTQELLQSGQQVALRSSYSGRPASDQDSSVLMGRRERDGLDQMLSAVSSSAPHLDMLHAKSIACGSGQRQSLQRESLCFMKGVMDECTHIANFSVPVDPSLIIIVQAKEDAYVPRTGVRSLQEIWPGCEVRYLNGGHISAYLFKQGLFRQAIYDAYDRFLHKYSSL”, for which the “soluble on expression in E. coli” value was “soluble”.

“MVKLKVEDLEMDKIAPLAPEVSLKMAWNIMRDKNLKSIPVADGNNHLLGMLSTSNITATYMDIWDSNILAKSATSLDNILDTLSAEAQNINEERKVFPGKVVVAAMQAESLKEFISEGDIAIAGDRAEIQAELIELKVSLLIVTGGHTPSKEIIELAKKNNITVITTPHDSFTASRLIVQSLPVDYVMTKDNLVAVSTDDLVEDVKVTMSETRYSNYPVIDENNKVVGSIARFHLISTHKKKLEHHHHHHHH”: the “soluble on expression in E. coli” value is given as “soluble”.

Consider “MVKLRDWQEKLKDKVIEGLRNNFLVALNAPTGSGKTLFSLLVSLEVKPKVLFVVRTHNEFYPIYRDLTKIREKRNITFSFLVGKPSSCLYAEKGAESEDIPCKYCELKGSIVEVKTDDSPLSLVKKLKKDGLQDKFCPYYSLLNSLYKADVIALTYPYFFIDRYREFIDIDLREYMIVIDEAHNLDKVNELEERSLSEITIQMAIKQSKSEESRRILSKLLNQLREVVLPDEKYIKVENVPKLSKEELEILADDYEDIRKDSLKQGKVNKIHIGSILRFFSLLSIGSFIPFSYSKRLVIKNPEISYYLNLLNDNELSIILMSGTLPPREYMEKVWGIKRNMLYLDVEREIQKRVSGSYECYIGVDVTSKYDMRSDNMWKRYADYLLKIYFQAKANVLVVFPSYEIMDRVMSRISLPKYVESEDSSVEDLYSAISANNKVLIGSVGKGKLAEGIELRNNDRSLISDVVIVGIPYPPPDDYLKILAQRVSLKMNRENEEFLFKIPALVTIKQAIGRAIRDVNDKCNVWLLDKRFESLYWKKNLKCLNANKMKL”, for which the “soluble on expression in E. coli” value is listed as “soluble”.

For the sequence “MVKTTEVVSEVSKVAGVRPWAGIFVVEIQEDILADEFTFEALMRTLPLASQARILNKKSFHDRCSNLCSQLLQLFGCSIVTGLNFQELKFDKGSFGKPFLDNNRFLPFSMTIGEQYVAMFLVKCVSTDEYQDVGIDIASPCNYGGREELELFKEVFSEREFNGLLKASDPCTIFTYLWSLKESYTKFTGTGLNTDLSLIDFGAISFFPAEGASMCITLDEVPLIFHSQWFNNEIVTICMPKSISDKINTNRPKLYNISLSTLIDYFIENDGL”, the “soluble on expression in E. coli” value is recorded as “soluble”.

On to “MVKVTIIIPTYNPREHLIDTLLSVRTQNFTNIEVLIVDDGSTVDVSTLIKPYITADNIRCIRRKNGGTAAARNTGITNSTGEYIAFLDHDDIWLPDKVALQVEALDRNLSCGLTYCNFQILDEQTGSLINPHRQGEGGCMFEKFLYRNYITTASQIMVRRSCFDQLGLFDESLPIVDDYDFYLRLSRCYDIHYDPRVLTHWRSHQFNTSKNYEKTQLGRIKVKETALNRWALSDNQKKILFKGLRRDYYELAYYYLNSEKYSDARNYFRKAVPYRPVKSIVYYLSTCVPGLSYLNMKALKNDFLKLEHHHHHH”, for which the “soluble on expression in E. coli” value is “not soluble”.

Consider “MVKVVVDASNVAYSTKNENSQPQMSNILAAVKSLEESGDEFVIIADASLRHDIDDKEKFEKLLESENVEEVPAGNDADHFILNIAHNEKAKILSNDKFRDYAAEFKNINSMRIPFVIENGRVTFGKPKSPKKDKNILQHISDEIIKELNFKRWEVYTGKEGLEISPLNIAKQAIIRIDNDNDTSSKLEKVFSKIPMFNKIVDMVDDVEVAAPYVIFVLVHPKDYKLAVKNAGNISVTVADRLRLEKKPLIAVRNDLFTRPGTFELNIMLADEVTEHAPYNVLVRVSTHDEVFIKKNSRNIASTIAGRLGSWKFPFVSVKPDMLLEKPGDFEIELEKGGSLDGLEHHHHHH”, for which the “soluble on expression in E. coli” value is listed as “soluble”.

In the case of “MVLARREALDPRYQYDAALAAAKKGEAAIAVPAGVMIAGYWPIRSEIDPRPLLSAFRAKGARLCLPVVLDAETIAFREFLPDAELVPTGFGTMGPDEHAPLVDPAIMLMPLAGFDRLGHRLGYGAGHYDRALARFAERGLQPLLIGMAFDCQEVDYVPNEPHDIALHQILTESGLRSRAMDLEHHHHHH”, the “soluble on expression in E. coli” value is on record as “not soluble”.

Consider “MVLETPVCSPIDKESSSDDVQLNKPPKKKRKLDVVYPPRDNTSSSSDVKPKVPGYCGVKAIGCNRSDELLAEVALHSYNSQTGTNLELMTVTQVMLQSVAHINYHMILDAFDPANNSLSSIEICLWDAAVKNNEKLRLVTTFCSLEGSGDKGSQWDPNGVDVLYTGVMPKWLDDGALSGSEKLHYYEVNDSDLQENKWLHLYAQVGAYSKWDLGMVKHFPLEIKKVVVQTMEDDIESNLKLKSSNAIFYITFTTSGGVECACIIRQTRNGRPQHMCLEINNVEMDK”, for which the “soluble on expression in E. coli” value was “soluble”.

As to “MVLLGRGLLAVGRVAFRRPMIVRHLQYDAFVDRHIGPRRLEQQQMLDFIGYKDLDDLTGTNVPNMIKAEKALELPAPLDEYKMLKELEAIAAQNKIYRSYIGMGYYDTIVPAVISRNILQNIGWISQYTPYQAEISQGRLESLLNFQTMIAEMTGLPTTNASLLDEATASAEAVALAARTTKRNKIVVDSFCHPQNLDVIRTRSGPLGIDIEVSDSIEGYAFDDKVAAVVVQYPNTEGRIHQFDELIESAHKNKSLVIMVCDLLSLTILRSPGDLGADIAVGSAQRFGVPLGYGGPHAGFMAVAKHDAKNALGRNIPGRIIGVTKDANGNRALRLALQTREQHIRRDKATSNICTAQALLANMSAMYAVYHGPQRLTEIARGVHKSTAYLAYHLRNAGHEIVHKDYFDTLKIRLKDKAALEETKKRAEEMKMNFRYYEDGDIGVSLDETVKSEDLMDIIYTLNGATEKDVTKLREERWEVACPLIGNSPHSRSSLFLQHPVFNTHQSEQQLVRYMKRLENKDVSLVHSMIPLGSCTMKLNASAELIPITWPTLSSIHPFAPVEQAKGYSRIFGDLEKWLCEITGYDNFSLQPNSGANGEYAGLLAIRNYLIHKGEEQRNICLIPTSAHGTNPASAQMANMKVVVVDSDHHGNINYKDLAAKAEKYSNQLAAIMVTYPSTHGVFESSIRDVCDKVHEHGGQVYLDGANMNAQVGLCRPGDYGSDVSHLNLHKTFCIPHGGGGPGVGPIGVKKHLAPFLPGHSVVPVDGRKVGSVASAPYGSASILAITWAYIRMMGPVGLREASQVAILNANYMAKRLENDYRIVYKDEQGLVAHEFIMDCKPFKKHGIEVVDIAKRLMDYGFHSPTMSWPVHDCLMIEPTESEDKAEMDRLVEALLSIREEIRQVENGSLDKHLNPLKMAPHTLEKVTSDNWNMPYSRELAAFPKPWCTHKAWPTVGRVDDQYGDRNLVCTCPPIESYQ”, the “soluble on expression in E. coli” value is given as “not soluble”.

In the case of “MVLRKLSTYRQKRDFEKTPEPSGEAAVASSKQRRFVIQKHDASRLHYDFRLEFDGVFKSWAVTKGPSLDPHDKRLAVEVEDHPLDYGDFEGTIPEGQYGGGTVMLWDRGTWEADDPERGFKKGDLKFTLHGEKLHGSWVLVRMRNDRDGGKRTNWLLIKHRDEYAREGEDILAEDKSVASGRAMAQIAEGKGLEHHHHHH”, the “soluble on expression in E. coli” value is “not soluble”.

Regarding “MVMAAVIHKKGGPDNFVWEEVKVGSPGPGQVRLRNTAIGVNFLDTYHRAGIPHPLVVGEPPIVVGFEAAAVVEEVGPGVTDFTVGERVCTCLPPLGAYSQERLYPAEKLIKVPKDLDLDDVHLAGLMLKGMTAQYLLHQTHKVKPGDYVLIHAAAGGMGHIMVPWARHLGATVIGTVSTEEKAETARKLGCHHTINYSTQDFAEVVREITGGKGVDVVYDSIGKDTLQKSLDCLRPRGMCAAYGHASGVADPIRVVEDLGVRGSLFITRPALWHYMSNRSEIDEGSKCLFDAVKAGVLHSSVAKTFPLREAAAAHKYMGGRQTIGSIVLLPQA”, the “soluble on expression in E. coli” value was “soluble”.

Take “MVNTLEGLESTRNLILKENPMRRAAELVARLSADEVTMRAAKYELIKFNRAFQNFMLVLDENIEEILMSNDNSTRIQLKKLPEFPSFSDSFMQEYEKALLNGAEKLKASTSSEKGSIPSVSFSSSISSSSAELSDARCLICLDDVISTEKTIKCNSCRRRFHLDCASQWFKEKSVCPACNRGMLDPTEFPSL”: the “soluble on expression in E. coli” value is “not soluble”.

Turning to “MVQFLAQMPTGTSSFQAAITENEEGRLFEKYGQLLQESPPASNRPSLGIEGASGLPRPGMCPGRDCSPGSCLAALCPRPPPLYLMVPGKASGMAEAELRATLPCSCGSIPLSTPKR”, the “soluble on expression in E. coli” value is “soluble”.

The values above are taken from the DeepSol protein solubility set.
